{"source": "patent US20220288204A1", "about": "“DOSAGE AND ADMINISTRATION OF ANTI-ERBB3 (HER3) MONOCLONAL ANTIBODIES TO TREAT TUMORS ASSOCIATED WITH NEUREGULIN 1 (NRG1) GENE FUSIONS” (ELEVATION ONCOLOGY, INC., priority 2021, published 2022)", "molecules": {"B1": {"name": "seribantumab: anti-ERBB3 (HER3) fully human monoclonal antibody; heavy and light chains SEQ ID NOs: 12 and 13 (antibody)", "heavy": "EVQLLESGGGLVQPGGSLRLSCAASGFTFSHYVMAWVRQAPGKGLEWVSSISSSGGWTLYADSVKGRFTISRDNSKNTLYLQMNSLRAEDTAVYYCTRGLKMATIFDYWGQGTLVTVSSASTKGPSVFPLAPCSRSTSESTAALGCLVKDYFPEPVTVSWNSGALTSGVHTFPAVLQSSGLYSLSSVVTVPSSNFGTQTYTCNVDHKPSNTKVDKTVERKCCVECPPCPAPPVAGPSVFLFPPKPKDTLMISRTPEVTCVVVDVSHEDPEVQFNWYVDGVEVHNAKTKPREEQFNSTFRVVSVLTVVHQDWLNGKEYKCKVSNKGLPAPIEKTISKTKGQPREPQVYTLPPSREEMTKNQVSLTCLVKGFYPSDIAVEWESNGQPENNYKTTPPMLDSDGSFFLYSKLTVDKSRWQQGNVFSCSVMHEALHNHYTQKSLSLSPGK", "light": "QSALTQPASVSGSPGQSITISCTGTSSDVGSYNVVSWYQQHPGKAPKLIIYEVSQRPSGVSNRFSGSKSGNTASLTISGLQTEDEADYYCCSYAGSSIFVIFGGGTKVTVLGQPKAAPSVTLFPPSSEELQANKATLVCLVSDFYPGAVTVAWKADGSPVKVGVETTKPSKQSNNKYAASSYLSLTPEQWKSHRSYSCRVTHEGSTVEKTVAPAECS"}}, "key": {"[1]": {"tested_on": "NRG1-β1-stimulated MCF-7 cells", "assay": "NRG1-β1-stimulated growth of MCF-7 cells", "assay_type": "cell-based, human", "experimental": "MCF-7 cells were treated with the indicated concentrations of NRG1-b1 for 10 minutes, and then cell extracts were prepared and subjected to Western blotting for the indicated phosphorylated (p) or total (t) proteins (FIG. 2A). […] Data were analyzed by nonlinear regression using GraphPad Prism 8. There were four replicates of each condition and data represent the mean±SD. […] Cells were counted on the days indicated on the graph. Results represent the mean±SD of duplicates of each condition in one representative experiment. MDA-MB-175-VII (FIG. 2D) and LUAD-0061AS3 (FIG. 2E) cells were treated with the indicated concentrations of inhibitors for 48 hours, and then caspase 3/7 enzymatic activity was measured in cell homogenates. Carfilzomib (20S proteasome inhibitor) was used as a positive control for apoptosis. […]\nFor the time-course experiments, cells were plated at a density of 5,000 (HCC-95) or 10,000 (all others) cells per well in 12-well tissue culture plates, and then treated 24 hours later (time 0) with the respective agents. […] Cells were trypsinized and counted at the relevant time-point shown on the graphs. […] AlamarBlue is a cell permeable […] dye that is reduced when it enters the mitochondria and emits fluorescence at a different wavelength (Gloeckner H, J. Immunol. Methods 2001; 252:131-8). […]"}, "[2]": {"tested_on": "HER3 and AKT phosphorylation in H6c7-ATP1B1-NRG1 cells", "assay": "Western blotting of HER3 and AKT phosphorylation", "assay_type": "cell-based, human", "conditions": "serum-starved 24 hours", "from_the_text": "(§1) H6C7-EV (empty vector) and H6C7-ATP1B1-NRG1 cells were profiled for activated intracellular kinases using phospho-proteomic arrays (FIG. 7A). H6C7-EV and H6C7 cells with the indicated NRG1 fusions were profiled for activated receptor tyrosine kinases (RTK) using phospho-RTK arrays (FIG. 7B). Quantitation of phosphorylated EGFR, HER2, and HER3 is shown (FIG. 7C). Western blot analysis of cell extracts from H6C7-EV and H6C7 cells expressing NRG1 fusions (FIGS. 7D-E). […] All cells were serum-started for 24 hours prior to experimentation.\n(§2) Models of isogenic pancreatic cancer cells with NRG1 fusions by lentiviral-mediated cDNA expression of ATP1B1-NRG1 and SLC3A2-NRG1 fusions in immortalized human pancreatic ductal cells (H6c7) were developed. […] Western blotting analysis was used to evaluate protein phosphorylation and expression. The presence of NRG1 fusions was confirmed by reverse transcription polymerase chain reaction (RT-PCR) and next-generation sequencing (NGS).\n(§3) There was no regression of afatinib-treated pancreatic PDX tumors. […] This was confirmed using a human-specific GAPH antibody."}, "[3]": {"tested_on": "HER3 and AKT phosphorylation in H6c7-SLC3A2-NRG1 cells", "assay": "Western blotting of HER3 and AKT phosphorylation", "assay_type": "cell-based, human", "conditions": "serum-starved 24 hours", "from_the_text": "as §1, §2, §3"}, "CTG-0943 PDX tumors": {"tested_on": "CTG-0943 PDX tumors", "assay": "Pancreatic adenocarcinoma PDX model (APP-NRG1)", "assay_type": "in vivo, mice", "experimental": "Mice bearing CTG-0943 PDX tumors (5-8 mice per group) were treated with indicated agents (FIG. 8A). Representative H&E-stained slides of a vehicle-treated tumor (FIG. 8B). Tumor volume, results represent the mean±SEM. […] Change in the volume of individual tumors (vehicle: day 20; treated groups: day 31) compared with day 0(%) (FIG. 8D). Western blot analysis of vehicle, and afatinib and seribantumab-treated tumors. Tumor residues extracted day 24 for vehicle-, day 31 for seribantumab-, and day 32 for afatinib-treated groups. Antibody reactivity with human (H) and/or mouse (M) proteins is indicated.\nas §2, §3"}, "CH-17-0068 PDX tumors": {"tested_on": "CH-17-0068 PDX tumors", "assay": "Intrahepatic cholangiocarcinoma PDX model (RBPMS-NRG1)", "assay_type": "in vivo, mice", "conditions": "monotherapy seribantumab 5 mg and 10 mg per dose BIW vs afatinib 5 mg/kg QD", "experimental": "Representative H&E-stained CH-17-0068 PDX tumor (FIG. 9A). Genomic alterations identified by RNAseq and corresponding investigational targeted therapies (FIG. 9B). […] Afatinib (5 mg/kg QD) or AG-120 (isocitrate dehydrogenase [IDH] inhibitor, 150 mg/kg twice daily [BID]) were then added to the indicated groups. Results represent the mean±SEM. Change in the volume of individual tumors on day 30 (FIG. 9D) or at the end of the study (FIG. 9E).\nas §2"}, "[4]": {"conditions": "5 mg or 10 mg twice weekly seribantumab"}}, "data": [{"molecule": "B1", "values": [{"measurement": "NRG1-β1-stimulated growth, temporal study", "setting": "[1]; pretreated 2 μmol/L seribantumab 1 hour, 10 ng/mL NRG1-β1, up to 10 days", "result": "prevented NRG1-β1-stimulated growth completely"}, {"measurement": "growth (viability) of NRG1-β1-stimulated cells", "setting": "[1]; seribantumab 0.125 μmol/L (lowest used), NRG1-β1 0-5 ng/mL, 96 hours", "result": "largely suppressed growth"}, {"measurement": "HER3 and AKT phosphorylation", "setting": "[2]", "result": "dose-dependent inhibition"}, {"measurement": "HER3 and AKT phosphorylation", "setting": "[3]", "result": "dose-dependent inhibition"}, {"measurement": "tumor growth", "setting": "CTG-0943 PDX tumors; [4]", "result": "Tumor growth inhibition was observed"}, {"measurement": "tumor shrinkage", "setting": "CTG-0943 PDX tumors; [4]", "result": "up to 55%"}, {"measurement": "tumor shrinkage, range", "setting": "CTG-0943 PDX tumors; [4]", "result": "23-77%"}, {"measurement": "proteins in residual tumors by Western blotting", "setting": "CTG-0943 PDX tumors; seribantumab-treated tumors, end of study (day 31)", "result": "Loss of phosphorylated and total EGFR, HER2 and HER3, cyclin D1"}, {"measurement": "efficacy compared with afatinib", "setting": "CTG-0943 PDX tumors; two doses of seribantumab vs afatinib 5 mg/kg QD", "result": "more effective than afatinib"}, {"measurement": "efficacy compared with afatinib", "setting": "CH-17-0068 PDX tumors", "result": "equally effective as afatinib"}]}]}
